These results are taken from patent US11896642.

No end group written: not given here.

Sequences and labels used below:
B1: HA108 backbone HA, 10PM (peptide)
peptide: GQLYKSILYGSGSGSRR
modifications: not fully specified (C-terminus); also: several peptides per HA backbone, peptide load 10
B2: HA108 backbone HA, 20PM (peptide)
peptide: GQLYKSILYGSGSGSRR
modifications: not fully specified (C-terminus); also: several peptides per HA backbone, peptide load 20
B3: HA108 backbone HA, 50PM (peptide)
peptide: GQLYKSILYGSGSGSRR
modifications: not fully specified (C-terminus); also: several peptides per HA backbone, peptide load 50
B4: HA108 backbone HA, 30PM (peptide)
peptide: GQLYKSILYGSGSGSRR
modifications: not fully specified (C-terminus); also: several peptides per HA backbone, peptide load 30

In one assay the target is Rat tail monomeric collagen I (Corning) (rat) (UniProt P02454). Briefly: competitive ELISA on plate-coated rat tail collagen I, competitor biotin Compound 1B; IC50 against that of Compound 1. (In general: An ELISA detects its analyte on a solid surface through an enzyme-linked reagent.)
On to B1, for which the ratio IC50sample/IC50 Compound 1 was 14.8.
For B2, the ratio IC50sample/IC50 Compound 1 came out at 2.82.
In the case of B3, the ratio IC50sample/IC50 Compound 1 was 7.49.
Consider B4, for which the ratio IC50sample/IC50 Compound 1 came out at 13.4.

Another assay concerns the target biotin labeled PDGF-BB (R&D Systems) (UniProt P01127). Briefly: competitive ELISA: biotin PDGF-BB pre-incubated with conjugate at 1 mg/mL, added to plate-coated PDGF-Rβ Fc; A450 against reference Compound 1 (higher = less inhibition).
Chain of UniProt P01127 (P01127 82-190): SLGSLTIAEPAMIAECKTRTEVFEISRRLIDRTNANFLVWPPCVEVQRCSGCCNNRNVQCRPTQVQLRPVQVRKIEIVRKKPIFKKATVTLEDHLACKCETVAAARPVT
On to B1, for which the ratio Absorbance 450 conjugate/Absorbance 450 reference is 17.
Same read-out and setting: under B2 stands 16.3.
For B3, the ratio Absorbance 450 conjugate/Absorbance 450 reference amounted to 9.31.
For the molecule B4, the ratio Absorbance 450 conjugate/Absorbance 450 reference amounted to 14.2.
